This note sets out measurements from US20200362033A1.

To fix the notation:
B1: #101H1L2hIgG2 (antibody)
heavy: EVQLVESGGGLVQPGRSLRLSCAASGFTFSDYYMAWVRQAPGKGLEWVATISYDGSNTYYRDSVKGRFTISRDNSKSTLYLQMNSLRAGDTAVYYCARFYNNYYFDYWGQGTLVTVSSASTKGPSVFPLAPCSRSTSESTAALGCLVKDYFPEPVTVSWNSGALTSGVHTFPAVLQSSGLYSLSSVVTVPSSNFGTQTYTCNVDHKPSNTKVDKTVERKCCVECPPCPAPPVAGPSVFLFPPKPKDTLMISRTPEVTCVVVDVSHEDPEVQFNWYVDGVEVHNAKTKPREEQFNSTFRVVSVLTVVHQDWLNGKEYKCKVSNKGLPAPIEKTISKTKGQPREPQVYTLPPSREEMTKNQVSLTCLVKGFYPSDIAVEWESNGQPENNYKTTPPMLDSDGSFFLYSKLTVDKSRWQQGNVFSCSVMHEALHNHYTQKSLSLSPGK
light: DIQMTQSPSSLSASVGDRVTINCKASQNLYKNLAWYQQKPGKAPKLLIDNANSLQTGIPSRFSGSGSGTDFTLTISSLQPEDFATYFCQQYYSGSYTFGQGTKVEIKRTVAAPSVFIFPPSDEQLKSGTASVVCLLNNFYPREAKVQWKVDNALQSGNSQESVTEQDSKDSTYSLSSTLTLSKADYEKHKVYACEVTHQGLSSPVTKSFNRGEC
B2: #84H1L2hIgG2 (antibody)
heavy: EVQLVESGGGLVQPGGSLRLSCAASGFTFSNYYMAWVRQAPGKGLEWVSTITTSGSRPYYADSVKGRFTISRDNSKNTLYLQMNSLRAEDTAVYYCARHIYYYDGYPFAYWGQGTLVTVSSASTKGPSVFPLAPCSRSTSESTAALGCLVKDYFPEPVTVSWNSGALTSGVHTFPAVLQSSGLYSLSSVVTVPSSNFGTQTYTCNVDHKPSNTKVDKTVERKCCVECPPCPAPPVAGPSVFLFPPKPKDTLMISRTPEVTCVVVDVSHEDPEVQFNWYVDGVEVHNAKTKPREEQFNSTFRVVSVLTVVHQDWLNGKEYKCKVSNKGLPAPIEKTISKTKGQPREPQVYTLPPSREEMTKNQVSLTCLVKGFYPSDIAVEWESNGQPENNYKTTPPMLDSDGSFFLYSKLTVDKSRWQQGNVFSCSVMHEALHNHYTQKSLSLSPGK
light: DVQMTQSPSSLSASVGDRVTITCKASKSISNNLAWYQQKPGKANKLLIHSGSTLQSGTPSRFSGSGSGTDFTLTISSLQPEDFATYYCQQYNEYPLTFGQGTKVEIKRTVAAPSVFIFPPSDEQLKSGTASVVCLLNNFYPREAKVQWKVDNALQSGNSQESVTEQDSKDSTYSLSSTLTLSKADYEKHKVYACEVTHQGLSSPVTKSFNRGEC
B3: #131H2L2hIgG2 (antibody)
heavy: QVQLVESGGGVVQPGRSLRLSCAASGFTFNNYWMTWVRQAPGKGLEWVASITKAGGSTYYADSVKGRFTISRDNSKSTLYLQMNSLRAEGTAVYYCTRELGEFYVMDAWGQGTTVTVSSASTKGPSVFPLAPCSRSTSESTAALGCLVKDYFPEPVTVSWNSGALTSGVHTFPAVLQSSGLYSLSSVVTVPSSNFGTQTYTCNVDHKPSNTKVDKTVERKCCVECPPCPAPPVAGPSVFLFPPKPKDTLMISRTPEVTCVVVDVSHEDPEVQFNWYVDGVEVHNAKTKPREEQFNSTFRVVSVLTVVHQDWLNGKEYKCKVSNKGLPAPIEKTISKTKGQPREPQVYTLPPSREEMTKNQVSLTCLVKGFYPSDIAVEWESNGQPENNYKTTPPMLDSDGSFFLYSKLTVDKSRWQQGNVFSCSVMHEALHNHYTQKSLSLSPGK
light: B2 light with S30N, N31T, N32Y, Q38E, A43T, H49Y, Y91H, L96F, V104L

Positions count from the first letter of the chain named. Where only a bound is given, the exact number is not on record here.

This experiment has as its target human CD147 endogenously expressed on human cancer cell lines (human), P35613. The experiment can be described thus: cell-based or functional assay.
As to B1, the ratio of the phosphorylated p38MAPK signal to the detected p38MAPK signal, HepG2 cells, 10 ug/ml, 15 minutes (fold of the human IgG treated group) is greater than 2. As for B2, the ratio of the phosphorylated p38MAPK signal to the detected p38MAPK signal, HepG2 cells, 10 ug/ml, 15 minutes (fold of the human IgG treated group) was greater than 2. For the molecule B3, the ratio of the phosphorylated p38MAPK signal to the detected p38MAPK signal, HepG2 cells, 10 ug/ml, 15 minutes (fold of the human IgG treated group) was greater than 2.
